Results reported in PMC6448480, “A Two-Way Proteome Microarray Strategy to Identify Novel Mycobacterium tuberculosis-Human Interactors” (Frontiers in Cellular and Infection Microbiology, 2019).

Target: T1, myc-tagged SMAD2 (human, UniProt Q15796 1-467, labeled with Cy3)
T1 construct: SMAD2, human; also called SMAD2-myc; source: cloned into pCMV-C-myc vector, purified as previously reported (Li et al., 2013)
Assay: peptide or protein array
Conditions: both partners purified

T1 sequence (Q15796 whole entry): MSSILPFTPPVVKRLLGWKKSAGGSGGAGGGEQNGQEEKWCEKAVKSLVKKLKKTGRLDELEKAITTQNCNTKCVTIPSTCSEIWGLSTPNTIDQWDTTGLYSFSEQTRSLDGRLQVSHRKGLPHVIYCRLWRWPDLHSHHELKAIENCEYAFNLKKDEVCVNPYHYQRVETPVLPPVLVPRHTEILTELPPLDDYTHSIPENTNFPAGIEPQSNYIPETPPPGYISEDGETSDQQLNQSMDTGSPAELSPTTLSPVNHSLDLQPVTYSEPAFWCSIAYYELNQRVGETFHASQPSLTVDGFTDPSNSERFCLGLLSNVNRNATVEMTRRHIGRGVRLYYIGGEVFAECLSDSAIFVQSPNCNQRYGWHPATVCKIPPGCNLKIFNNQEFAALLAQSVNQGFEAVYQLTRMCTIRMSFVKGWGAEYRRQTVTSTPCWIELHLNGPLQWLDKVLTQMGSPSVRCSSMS

Binder	binding result
Rv0577 (Putative glyoxylase Cfp32) on the Mtb proteome microarray (natural protein) MPKRSEYRQGTPNWVDLQTTDQSAAKKFYTSLFGWGYDDNPVPGGGGVYSMATLNGEAVAAIAPMPPGAPEGMPPIWNTYIAVDDVDAVVDKVVPGGGQVMMPAFDIGDAGRMSFITDPTGAAVGLWQANRHIGATLVNETGTLIWNELLTDKPDLALAFYEAVVGLTHSSMEIAAGQNYRVLKAGDAEVGGCMEPPMPGVPNHWHVYFAVDDADATAAKAAAAGGQVIAEPADIPSVGRFAVLSDPQGAIFSVLKPAPQQ	binds
Rv3241c (Ribosome hibernation promotion factor, Hpf) on the Mtb proteome microarray (natural protein) MSRLAVDSGQVLAEPKSNAEIVFKGRNVEIPDHFRIYVSQKLARLERFDRTIYLFDVELDHERNRRQRKSCQRVEITARGRGPVVRGEACADSFYAALESAVVKLESRLRRGKDRRKVHYGDKTPVSLAEATAVVPAPENGFNTRPAEAHDHDGAVVEREPGRIVRTKEHPAKPMSVDDALYQMELVGHDFFLFYDKDTERPSVVYRRHAYDYGLIRLA	binds
